In the Immune Epitope Database (IEDB):

How the values were obtained:
HLA-B*15:02 = test: IEDB peptide-MHC binding, purified MHC/direct/fluorescence; filed as Kd, often an IC50 or EC50 that approximates it; ≥ and ≤ were set here for values at or beyond the usual limits of such assays; conditions: source organism: dengue virus type 4
HLA-B*46:01 = test: as above; conditions: source organism: dengue virus type 4
HLA-B*57:01 = test: IEDB peptide-MHC binding, purified MHC/competitive/radioactivity; filed as Kd, often an IC50 or EC50 that approximates it; ≥ and ≤ were set here for values at or beyond the usual limits of such assays; conditions: source organism: Dengue virus 4 Philippines/H241/1956
HLA-A*30:02 = test: as above; conditions: source organism: Dengue virus 4 Philippines/H241/1956
HLA-A*32:01 = test: as above; conditions: source organism: Dengue virus 4 Philippines/H241/1956
HLA-A*01:01 = test: as above; conditions: source organism: Dengue virus 4 Philippines/H241/1956
HLA-A*11:01 = test: IEDB peptide-MHC binding, purified MHC/competitive/radioactivity; ≥ and ≤ were set here for values at or beyond the usual limits of such assays; conditions: source organism: Toxoplasma gondii
HLA-A*02:01 = test: as above; conditions: source organism: Toxoplasma gondii
HLA-B*07:02 = test: as above; conditions: source organism: Toxoplasma gondii

Row | Sequence | Kd (HLA-B*15:02) | Kd (HLA-B*46:01) | Kd (HLA-B*57:01) | Kd (HLA-A*30:02) | Kd (HLA-A*32:01) | Kd (HLA-A*01:01) | IC50 (HLA-A*11:01) | IC50 (HLA-A*02:01) | IC50 (HLA-B*07:02)
1 | RTWAYHGSY | ≥ 20000 nM | ≥ 20000 nM | 15.8 nM | 0.19 nM | 1.46 nM | 1280 nM | – | – | –
2 | STFWPCLLR | – | – | – | – | – | – | 9.3 nM | 27000 nM | ≥ 50000 nM
